Assay results: US20240182575A1 (Ablynx, published 2024)
Each block holds one binder with its values, some of them ahead of it.

Experiments:
[1] = target: T1, rhPD1-Fc (fusion protein of the extracellular part of human PD-1 and mouse Fc gamma 1, R&D Systems Cat … (human; mouse, UniProt Q15116 25-170; P01868 98-324 = IgG part, limits assumed); assay: competition ELISA, coated PD-1; blocked ligand B7-H1-biotin
T1 construct: extracellular domain;domain: Fc; bought; also called PD-1 ectodomain
Experimental: (§1) In short, 2 μg/ml PD-1 ectodomain (R&D Systems Cat #1086-PD, Minneapolis, US) was immobilized on maxisorp microtiter plates (Nunc, Wiesbaden, Germany) and free binding sites were blocked using 4% Marvel in PBS.

[2] = target: T1, rhPD1-Fc (fusion protein of the …); assay: competition ELISA, coated PD-1; blocked ligand PD-L2-biotin
Experimental: as §1

[3] = target: T2, rhPDL2-Fc (fusion protein of the extracellular part of human PD-L2 and mouse Fc gamma 1, R&D Systems Cat … (human; mouse, UniProt Q9BQ51 20-220; P01868 98-324 = IgG part, limits assumed); assay: competition ELISA, coated PD-L2; blocked ligand PD-1-biotin
T2 construct: extracellular domain;domain: Fc; bought; also called PD-L2 ectodomain
Experimental: In short, 2 μg/ml PD-L2 ectodomain (R&D Systems, Minneapolis, US, Cat #1224-PL) was immobilized on maxisorp microtiter plates (Nunc, Wiesbaden, Germany) and free binding sites were blocked using 4% Marvel in PBS. Next, 0.5 μg/ml of PD-1 was preincubated with a dilution series of purified Nanobody.

[4] = target: T3, HuCD80-HuIgG1 (fusion protein of the extracellular part of human CD80 and human Fc gamma 1, R&D Systems Cat … (human, UniProt P33681 35-242)); assay: SPR, Biacore 3000, antigen amine-coupled
T3 construct: extracellular domain; bought, produced in NS0 cells; also called CD80-IgG1; CD80-Ig; not shown: human Fc gamma 1
T3 sequence (looked up): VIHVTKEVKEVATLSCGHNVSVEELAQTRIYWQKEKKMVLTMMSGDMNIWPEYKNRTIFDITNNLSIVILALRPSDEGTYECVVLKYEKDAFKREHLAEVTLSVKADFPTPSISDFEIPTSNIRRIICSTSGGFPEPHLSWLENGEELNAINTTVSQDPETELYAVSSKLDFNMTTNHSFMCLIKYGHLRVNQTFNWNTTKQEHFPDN
Experimental: (§2) Affinity constants (Kd) of individual purified Nanobody clones were determined by surface plasmon resonance on a Biacore 3000 instrument. […] Remaining reactive groups were inactivated using ethanolamine. Nanobody binding was assessed at 1 and 0.1 microM. Each sample was injected for 4 min at a flow rate of 45 μl/min to allow for binding to chip-bound antigen. Next, binding buffer without Nanobody was sent over the chip at the same flow rate to allow for dissociation of bound Nanobody. After 2 min, remaining bound analyte was removed by injecting regeneration solution (50 mM NaOH or Glycine/HCl pH 1.5). Binding curves obtained at different concentrations of Nanobody were used to calculate Kd values.

[5] = target: T4, HuCD86-HuIgG1 (fusion protein of the extracellular part of human CD86 and human Fc gamma 1, R&D Systems Cat … (human, UniProt P42081 24-247)); assay: SPR, Biacore 3000, antigen amine-coupled
T4 construct: extracellular domain; bought; also called CD86-IgG1; CD86-Ig; not shown: human Fc gamma 1
T4 sequence (looked up): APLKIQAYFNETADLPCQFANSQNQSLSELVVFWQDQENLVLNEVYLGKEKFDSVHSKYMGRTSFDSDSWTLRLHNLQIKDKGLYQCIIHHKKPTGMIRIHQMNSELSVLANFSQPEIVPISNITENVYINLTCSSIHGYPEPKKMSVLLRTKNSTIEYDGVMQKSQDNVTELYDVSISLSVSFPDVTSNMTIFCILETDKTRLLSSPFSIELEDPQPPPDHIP
Experimental: as §2

[6] = target: T3, HuCD80-HuIgG1 (fusion protein of the …); assay: ELISA, periplasmic extract on coated antigen, anti-myc detection
Excerpt: (§3) To this end, 3 independent ELISA assays were set up. In these ELISAs, either HuCD80 or HuCD86 fusion proteins or human IgG1 were coated on ELISA plates which were washed and then blocked using Marvel skimmed milk powder (Premier Brands UK Ltd., Wirral, Merseyside, UK). […] Four aliquots of periplasmic extract of individual clones prepared as described in Example 4 were allowed to bind in all four types of ELISA plates. Binding of Nanobody to immobilized antigen was detected using mouse anti-c-myc tag monoclonal antibody as a secundary, followed by a goat-anti-mouse (human and bovine serum protein pre-absorbed) HRP conjugate for detection (for detailed protocol, see the prior art and prior applications filed by applicant).

[7] = target: T4, HuCD86-HuIgG1 (fusion protein of the …); assay: as above
Excerpt: as §3

[8] = target: T5, Human IgG1, purified from a human plasma (Sigma-Aldrich Cat #I-5154) (human); assay: as above
T5 construct: also called HuIgG1
Excerpt: as §3

[9] = target: T6, rhB7-H2-Fc (fusion protein of the extracellular part of human B7-H2 (ICOSL) and mouse Fc gamma 1, R&D Systems … (human; mouse, UniProt O75144 19-256; P01868 98-324 = IgG part, limits assumed); assay: competition ELISA, coated B7-H2; blocked ligand ICOS-biotin
T6 construct: extracellular domain;domain: Fc; bought; also called B7-H2 ectodomain

[10] = target: T7, human CD28 on Jurkat cells (human, UniProt P10747 19-220); assay: FACS competition, Jurkat cells; blocked ligand CD80-Fc
T7 construct: whole, on cells; also called native form of the CD28 antigen; cell expressed CD28
Excerpt: The potency of cell-expressed CD28 binding Nanobodies to inhibit the interaction of CD28 with either CD80 or CD86 was also ranked using FACS based screening method. […] Dead cells were stained by including TOPRO3 vital dye in the final resuspension buffer. All samples were read on a BD FACSarray instrument. Dead cells were excluded from the analysis by gating out TOPRO3 vital dye positive scoring cells.

[11] = target: T8, HuCD28-HuIgG1 (fusion protein of the extracellular part of human CD28 and human Fc gamma 1, R&D Systems Cat … (human, UniProt P10747 19-152; P01857 100-330 = IgG part); assay: competition ELISA, CD28-hFc in solution; blocked ligand coated B7-1-muFc
T8 construct: extracellular domain;domain: Fc; bought; also called CD28-Ig; hCD28-Fc

B1: 102C3 (VHH)
VHH: EVQLVESGGGLVQAGKSLRLSCAASGSIFSIHAMGWFRQAPGKEREFVAAITWSGGITYYEDSVKGRFTISRDNAKNTVYLQMNSLKPEDTAIYYCAADRAESSWYDYWGQGTQVTVSS
notes: Nanobody against PD-1
IC50 (read off the curve) [1]: ~10 nM | IC50 (read off the curve) [2]: ~10 nM

B3: 102C12 (VHH)
VHH: EVQLVESGGGLVQAGGSLRLSCAASGSIASIHAMGWFRQAPGKEREFVAVITWSGGITYYADSVKGRFTISRDNAKNTVYLQMNSLKPEDTAIYYCAGDKHQSSWYDYWGQGTQVTVSS
notes: Nanobody against PD-1
IC50 (read off the curve) [1]: ~80 nM | IC50 (read off the curve) [2]: ~70 nM

B7: 95B11 (VHH)
VHH: EVQLVESGGGLVQPGGSLRLSCAASRSISSFNLLGWYRQAPGKQRELVAHLLSGGSTVYPDSVKGRFTVSRDNTKNTVYLQMNSLKPEDTAVYYCNAIAPALGSSWGQGTQVTVSS
notes: Nanobody against B7-H2 (ICOSL)
IC50 (read off the curve) [9]: ~10 nM

B8: 65B2 (VHH)
VHH: EVQLVESGGGLVQAGGSLRLSCATSGRTFSSDVMGWFRQAPGKEREFVAAINRSGHSTSYTGSVKGRFAISRDNTKNTVYLQMNSLKPEDTAVYYCALRLWSDYLAQKSGEYNYWGQGTQVTVSS
notes: Nanobody against CD28
IC50 (read off the curve) [10]: ~200 ng/well | IC50 (read off the curve) [11]: ~200 nM

B10: 95H8 (VHH)
VHH: EVQLVESGGGLVQTGGSLRLSCAASSSTSTSSIDVMGWYRQSPGKQRELVASISSFGSTYYADSVKGRFIISRDNAKNTVNLQMNNLKLEDTAVHFCNLRRLSPPPLLDYWGQGTQVTVSS
notes: as for B7
IC50 (read off the curve) [9]: ~10 nM

B11: 95A6 (VHH)
VHH: EVQLVESGGGLVQAGGSLRLSCALSGRAVSIAATAMGWYRQAPGKQRELVAARWSGGSIQYLDSVKGRFTISRDNAKNTVYLQMNSLTPEDTAVYYCNTLPWRANYSGQGTQVTVSS
notes: as for B7
IC50 (read off the curve) [9]: ~10 nM

B12: 70F10 (VHH)
VHH: EVQLVESGGGLVQAGGSLRLSCAASGFTFDDYAIGWFRQAPGKEREGVACVSNSDGSTYYANSVKGRFTISSDNAKNTVYLQMNSLKPEDTAVYYCAADSRCWGWGMLHMRHGDRGQGTQVTVSS
notes: Nanobody against CD28
IC50 (read off the curve) [11]: ~200 nM

B13: 95F8 (VHH)
VHH: EVQLVESGGGLVQAGGSLRLSCAASGIAFSIDIMDWYRQAPGKERELVATISGGGSTNYADSVKGRFIVSRDNAKNILYLQMNSLKPDDTAVYYCNARRLIYGRTVYWGQGTQVTVSS
notes: as for B7
IC50 (read off the curve) [9]: ~8 nM

B14: 70F9 (VHH)
VHH: EVQLVESGGGLVQAGGSLRLSCAASGRTFSSYVMGWFRQAPGKEREFVAAHSWYADYADSVKGRFSISRDNDKNTVYLQMNSLKPEDTAVYYCAASRSQGRRYANSYESWGQGTQVTVSS
notes: Nanobody against CD28
IC50 (read off the curve) [11]: ~100 nM

More lines, now with the values ahead:

IC50 (read off the curve) [1]: ~70 nM | IC50 (read off the curve) [2]: ~70 nM
B2: 102E2 (VHH)
VHH: EVQLVESGGGLVQAGGSLRLSCAASGSISSIHAMGWFRQAPGKEREFVAAITWSGGITYYADSLKGRFTISRDNAKNTGYLQMNSLKPEDTAIYYCAADRAQSSWYDYWGQGTQVTVSS
notes: Nanobody against PD-1

IC50 (read off the curve) [1]: ~200 nM | IC50 (read off the curve) [2]: ~200 nM
B4: 102E8 (VHH)
VHH: EVQLVESGGGLVQAGGSLGLSCAASGSIFSINAMAWFRQAPGKEREFVALISWSGGSTYYEDSVKGRFTISRDNAKNTVYLQMNSLKPEDTAIYYCAADRVDSNWYDYWGQGTQVTVSS
notes: Nanobody against PD-1

IC50 (read off the curve) [3]: ~7 nM
B5: 103F6 (VHH)
VHH: EVQLVESGGGLVQPGGSLRLSCAASGFTFSTYTMIWLRRAPGKGFEWVSTIDKDGNTNYVDSVKGRFAVSRDNTKNTLYLQMNSLKPEDTAMYYCTKHGSSARGQGTRVTVSS
notes: Nanobody against PD-L2

Kd [4]: 0.13 nM | koff [4]: 5.9e-05 s⁻¹ | kon [4]: 440000 M⁻¹ s⁻¹ | binding result [5]: no binding (tested: 1 and 0.1 microM) | OD [6]: 1.99 OD | OD [7]: 0.038 OD | OD [8]: 0.046 OD
B6: CD8086PMP1B2 (VHH)
VHH: EVQLVESGGGLVQAGGSLRLSCAASGRSFSSYVMGWFRQAPGKEREFVAAIIGRDIGTYYADSVKGRFTISRDNAKTTVYLQMNALKPEDTAVYYCAADSRSRLSGIRSAYDYWGQGTVTVSS
notes: not shown: C-terminal c-myc tag and His6 tag

IC50 (read off the curve) [3]: ~10 nM
B9: 103E2 (VHH)
VHH: EVQLVESGGGLVQAGGSLRLSCAASGSTFSNYVSNYAMGWGRQAPGTQRELVASISNGDTTNYADSVKGRFTISRDNAKNTVYLQMNSLKPEDTAVYYCFEHQVAGLTWGQGTQVTVSS
notes: Nanobody against PD-L2
